Where a chain is given by its changes, count along the chain named.
System: HepG2 cells
Experiment: 4-IPO toxicity assay: survival of transduced HepG2 cells by flow cytometry (propidium iodine)
Assay type: cell-based, human
Conditions: for 4-IPO processing activity / cell killing (in words): transduced cells challenged with 4-IPO
From the text: Initially, the serine at position 427 in the human CYP4B1 was mutated back to proline (h-P427), which is present at this position in all CYP4B1 proteins. Additionally a proline to serine exchange was created in the native rabbit CYP4B1 enzyme at the corresponding position 422 (r-P422). To immediately exclude the possibility that the different activities between human and the rabbit protein isoforms are simply due to differences in mRNA stability, the human CYP4B1 cDNA (SEQ ID NO.: 2) was optimized for human-codon usage (SEQ ID NO.: 3) by de novo synthesis with silent mutagenesis of the cDNA, thus removing internal TATA-boxes, instability motives, RNA secondary structures and (cryptic) splice donor/acceptor sites and ensuring an average GC content of around 60%. All cDNAs were cloned into the same lentiviral (LV) HIV1-based expression vector and LV supernatants produced by plasmid transfection in HEK293T cells. Subsequently, the two rabbit and the four human cDNAs were stably expressed in the human liver cell line HepG2. Stably expressing transduced cells were challenged after five days with increasing concentrations of 4-IPO for 24, 48 and 72 hours and then the survival of cells analyzed by flow cytometry using propidium iodine for live/dead cell discrimination.
Next, it was analyzed whether the different activities of the human and the rabbit proteins in processing 4-IPO could be explained by differences in protein half-life. However, as no antibody was available that can detect both CYP4B1 proteins, EGFP fusion constructs were generated. With these constructs, EGFP antibodies can be utilized to visualize and compare the expression levels and the half-lives of the fusion proteins in cells by western blots. EGFP expression can also be used for flow cytometry assessment of the expression levels due to the fluorescent properties of the fusion proteins. 5′- and 3′-fusions of EGFP with the native rabbit P422 and the human P427 CYP4B1 proteins were cloned in LV vectors with an IRES-NEO (NEO=neomycin phosphotransferase cDNA, npt II) and stably expressed in HepG2 cells (FIG. 3 B). For comparison, the corresponding IRES-EGFP constructs were also included, as these vectors had already been used in previous experiments and activity measurements thus already existed. Transduced cells were incubated for 24, 48 and 72 hours with increasing concentration of 4-IPO. Cultures were then harvested, cells stained with propidium iodine and subsequently analyzed for survival of transduced EGFP+ cells by flow cytometry (FIG. 3 A).

B1: modified human CYP4B1 P427 protein with the additional section 1 of the rabbit protein: differs in only four amino acid from the native human CYP4B1 protein (protein)
chain: MVPSFLSLSFSSLGLWASGLILVLGFLKLIHLLLRRQTLAKAMDKFPGPPTHWLFGHALEIQETGSLDKVVSWAHQFPYAHPLWFGQFIGFLNIYEPDYAKAVYSRGDPKAPDVYDFFLQWIGKGLLVLDGPKWFQHRKLLTPGFHYDVLKPYVAVFTESTRIMLDKWEEKAREGKSFDIFCDVGHMALNTLMKCTFGRGDTGLGHRDSSYYLAVSDLTLLMQQRLVSFQYHNDFIYWLTPHGRRFLRACQVAHDHTDQVIRERKAALQDEKVRKKIQNRRHLDFLDILLGARDEDDIKLSDADLRAEVDTFMFEGHDTTTSGISWFLYCMALYPEHQHRCREEVREILGDQDFFQWDDLGKMTYLTMCIKESFRLYPPVPQVYRQLSKPVTFVDGRSLPAGSLISMHIYALHRNSAVWPDPEVFDPLRFSTENASKRHPFAFMPFSAGPRNCIGQQFAMSEMKVVTAMCLLRFEFSLDPSRLPIKMPQLVLRSKNGFHLHLKPLGPGSGK
4-IPO processing activity / cell killing (in words): increased activity for toxifying 4-IPO

B2: coop H-P427: h-P427 expressed from cDNA optimized for human codon usage (protein, listed as Homo sapiens)
chain: B1 chain with K124R, D130E, F135L, P427S
cell survival rates upon administration of 4-IPO (transduced cells, FIG. 2): 37%

B3: variant of hCYP4B1 having an insertion of a serine at position 207: human CYP4B1 variant with serine insertion at amino acid position 207 (protein, listed as Homo sapiens)
chain: MVPSFLSLSFSSLGLWASGLILVLGFLKLIHLLLRRQTLAKAMDKFPGPPTHWLFGHALEIQETGSLDKVVSWAHQFPYAHPLWFGQFIGFLNIYEPDYAKAVYSRGDPKAPDVYDFFLQWIGRGLLVLEGPKWLQHRKLLTPGFHYDVLKPYVAVFTESTRIMLDKWEEKAREGKSFDIFCDVGHMALNTLMKCTFGRGDTGLGHSRDSSYYLAVSDLTLLMQQRLVSFQYHNDFIYWLTPHGRRFLRACQVAHDHTDQVIRERKAALQDEKVRKKIQNRRHLDFLDILLGARDEDDIKLSDADLRAEVDTFMFEGHDTTTSGISWFLYCMALYPEHQHRCREEVREILGDQDFFQWDDLGKMTYLTMCIKESFRLYPPVPQVYRQLSKPVTFVDGRSLPAGSLISMHIYALHRNSAVWPDPEVFDSLRFSTENASKRHPFAFMPFSAGPRNCIGQQFAMSEMKVVTAMCLLRFEFSLDPSRLPIKMPQLVLRSKNGFHLHLKPLGPGSGK
modifications: serine insertion at 207
4-IPO processing activity / cell killing (in words): did not reveal any functional differences

B4: CYP4B1 P427 mut18: modified human CYP4B1 P427 with sections 1+2+3 of the rabbit protein; differs in 19 amino acids (protein)
chain: MVPSFLSLSFSSLGLWASGLILVLGFLKLIHLLLRRQTLAKAMDKFPGPPTHWLFGHALEIQETGSLDKVVSWAHQFPYAHPLWFGQFIGFLNIYEPDYAKAVYSRGDPKAPDVYDFFLQWIGKGLLVLDGPKWFQHRKLLTPGFHYDVLKPYVAIFADSTRIMLEKWEKKACEGKSFDIFSDVGHMALDTLMKCTFGKGDSGLNHRDSSYYVAVSELTLLMQQRIDSFQYHNDFIYWLTPHGRRFLRACQVAHDHTDQVIRERKAALQDEKVRKKIQNRRHLDFLDILLGARDEDDIKLSDADLRAEVDTFMFEGHDTTTSGISWFLYCMALYPEHQHRCREEVREILGDQDFFQWDDLGKMTYLTMCIKESFRLYPPVPQVYRQLSKPVTFVDGRSLPAGSLISMHIYALHRNSAVWPDPEVFDPLRFSTENASKRHPFAFMPFSAGPRNCIGQQFAMSEMKVVTAMCLLRFEFSLDPSRLPIKMPQLVLRSKNGFHLHLKPLGPGSGK
4-IPO processing activity / cell killing (in words) (listed as human P427 CYP4B1 protein with sections 1+2+3): almost as high as the activity of native rabbit protein
4-IPO processing activity / cell killing (in words) (listed as modified human CYP4B1 P427 protein with sections 1+2+3 of the rabbit protein): increased activity for toxifying 4-IPO
cell survival rates (within 72 hours upon applying 4-IPO, FIG. 6 D): about 10%

Source: US20150216948A1, “CYTOCHROME P450 SUICIDE GENE SYSTEM” (priority 2012, published 2015)
